The values that follow come from FireProtDB (doi:10.1093/jb/mvq079).

As a reminder, the Tm is the temperature at the midpoint of the melting transition.

B1: Divalent-cation tolerance protein CutA, P69488 (parent)
chain: MLDEKSSNTASVVVLCTAPDEATAQDLAAKVLAEKLAACATLIPGATSLYYWEGKLEQEYEVQMILKTTVSHQQALLECLKSHHPYQTPELLVLPVTHGDTDYLSWLNASLR

In this data set the parent is B1. The conditions noted are these: Escherichia coli (strain K12); pH 9; Thermal; DSC; glycine Buffer; transition: 2; reversible: no; structure 3X3U; whole UniProt chain shown.

With S11A, the Tm came to 106 °C and the “change of melting temperature, mutant - wild type (higher = more stable)” value (“change of melting temperature, mutant” below) stood at 16.5 °C.

Consider S11I, for which the Tm turned out to be 103 °C and the “change of melting temperature, mutant” value turned out to be 12.8 °C.

For G45Q, the Tm turned out to be 82.1 °C and the “change of melting temperature, mutant” value is -7.8 °C.

As for E61H, the Tm came out at 94.3 °C and the “change of melting temperature, mutant” value is 4.4 °C.

Regarding E59Q, the Tm stood at 98.3 °C and the “change of melting temperature, mutant” value was 8.4 °C.

Regarding Y60T, the Tm amounted to 91.9 °C and the “change of melting temperature, mutant” value is 2 °C.
